Laboratory results reported in patent publication US20240400708A1.

Key:
[1] = target: feline FcRn complex (FcRn-α subunit and β-microglobulin), biotin labeled (feline); assay: SPR, pH 6
[2] = target: feline FcRn complex (FcRn-α subunit and β-microglobulin), biotin labeled (feline); assay: SPR, pH 7.4

| Binder | Kd [1] [nM] | Kd [2] [nM] |
| --- | --- | --- |
| feline IgG1a L314K (antibody, part only; not given: variable domains and light chain, not shown: another chain or arm of the molecule) constant: ASTTAPSVFPLAPSCGTTSGATVALACLVLGYFPEPVTVSWNSGALTSGVHTFPAVLQASGLYSLSSMVTVPSSRWLSDTFTCNVAHPPSNTKVDKTVRKTDHPPGPKPCDCPKCPPPEMLGGPSIFIFPPKPKDTLSISRTPEVTCLVVDLGPDDSDVQITWFVDNTQVYTAKTSPREEQFNSTYRVVSVLPILHQDWKKGKEFKCKVNSKSLPSPIERTISKAKGQPHEPQVYVLPPAQEELSRNKVSVTCLIKSFHPPDIAVEWEITGQPEPENNYRTTPPQLDSDGTYFVYSKLSVDRSHWQRGNTYTCSVSHEALHSHHTQKSLTQSPGK | 8.43 | 41.5 |
| feline IgG1a S252Y (antibody, part only; not given: Variable domains, not shown: another chain or arm of the molecule) constant: ASTTAPSVFPLAPSCGTTSGATVALACLVLGYFPEPVTVSWNSGALTSGVHTFPAVLQASGLYSLSSMVTVPSSRWLSDTFTCNVAHPPSNTKVDKTVRKTDHPPGPKPCDCPKCPPPEMLGGPSIFIFPPKPKDTLYISRTPEVTCLVVDLGPDDSDVQITWFVDNTQVYTAKTSPREEQFNSTYRVVSVLPILHQDWLKGKEFKCKVNSKSLPSPIERTISKAKGQPHEPQVYVLPPAQEELSRNKVSVTCLIKSFHPPDIAVEWEITGQPEPENNYRTTPPQLDSDGTYFVYSKLSVDRSHWQRGNTYTCSVSHEALHSHHTQKSLTQSPGK | 893 | 12700 |
| feline IgG1a S252F (antibody, part only; not given: Variable domains, not shown: another chain or arm of the molecule) constant: ASTTAPSVFPLAPSCGTTSGATVALACLVLGYFPEPVTVSWNSGALTSGVHTFPAVLQASGLYSLSSMVTVPSSRWLSDTFTCNVAHPPSNTKVDKTVRKTDHPPGPKPCDCPKCPPPEMLGGPSIFIFPPKPKDTLFISRTPEVTCLVVDLGPDDSDVQITWFVDNTQVYTAKTSPREEQFNSTYRVVSVLPILHQDWLKGKEFKCKVNSKSLPSPIERTISKAKGQPHEPQVYVLPPAQEELSRNKVSVTCLIKSFHPPDIAVEWEITGQPEPENNYRTTPPQLDSDGTYFVYSKLSVDRSHWQRGNTYTCSVSHEALHSHHTQKSLTQSPGK | 123 | 5960 |
| feline IgG1a H436Y (antibody, part only; not given: Variable domains, not shown: another chain or arm of the molecule) constant: ASTTAPSVFPLAPSCGTTSGATVALACLVLGYFPEPVTVSWNSGALTSGVHTFPAVLQASGLYSLSSMVTVPSSRWLSDTFTCNVAHPPSNTKVDKTVRKTDHPPGPKPCDCPKCPPPEMLGGPSIFIFPPKPKDTLSISRTPEVTCLVVDLGPDDSDVQITWFVDNTQVYTAKTSPREEQFNSTYRVVSVLPILHQDWLKGKEFKCKVNSKSLPSPIERTISKAKGQPHEPQVYVLPPAQEELSRNKVSVTCLIKSFHPPDIAVEWEITGQPEPENNYRTTPPQLDSDGTYFVYSKLSVDRSHWQRGNTYTCSVSHEALHSHYTQKSLTQSPGK | 10.2 | 43.4 |
| feline IgG1a A431K (antibody, part only; not given: variable domains and light chain, not shown: another chain or arm of the molecule) constant: ASTTAPSVFPLAPSCGTTSGATVALACLVLGYFPEPVTVSWNSGALTSGVHTFPAVLQASGLYSLSSMVTVPSSRWLSDTFTCNVAHPPSNTKVDKTVRKTDHPPGPKPCDCPKCPPPEMLGGPSIFIFPPKPKDTLSISRTPEVTCLVVDLGPDDSDVQITWFVDNTQVYTAKTSPREEQFNSTYRVVSVLPILHQDWLKGKEFKCKVNSKSLPSPIERTISKAKGQPHEPQVYVLPPAQEELSRNKVSVTCLIKSFHPPDIAVEWEITGQPEPENNYRTTPPQLDSDGTYFVYSKLSVDRSHWQRGNTYTCSVSHEKLHSHHTQKSLTQSPGK | 10.1 | 9.39 |
| feline IgG1a Q311Y (antibody, part only; not given: Variable domains, not shown: another chain or arm of the molecule) constant: ASTTAPSVFPLAPSCGTTSGATVALACLVLGYFPEPVTVSWNSGALTSGVHTFPAVLQASGLYSLSSMVTVPSSRWLSDTFTCNVAHPPSNTKVDKTVRKTDHPPGPKPCDCPKCPPPEMLGGPSIFIFPPKPKDTLSISRTPEVTCLVVDLGPDDSDVQITWFVDNTQVYTAKTSPREEQFNSTYRVVSVLPILHYDWLKGKEFKCKVNSKSLPSPIERTISKAKGQPHEPQVYVLPPAQEELSRNKVSVTCLIKSFHPPDIAVEWEITGQPEPENNYRTTPPQLDSDGTYFVYSKLSVDRSHWQRGNTYTCSVSHEALHSHHTQKSLTQSPGK | 5.53 | 41.4 |
| feline IgG1a S252F/S434H (antibody, part only; not given: Variable domains, not shown: another chain or arm of the molecule) constant: ASTTAPSVFPLAPSCGTTSGATVALACLVLGYFPEPVTVSWNSGALTSGVHTFPAVLQASGLYSLSSMVTVPSSRWLSDTFTCNVAHPPSNTKVDKTVRKTDHPPGPKPCDCPKCPPPEMLGGPSIFIFPPKPKDTLFISRTPEVTCLVVDLGPDDSDVQITWFVDNTQVYTAKTSPREEQFNSTYRVVSVLPILHQDWLKGKEFKCKVNSKSLPSPIERTISKAKGQPHEPQVYVLPPAQEELSRNKVSVTCLIKSFHPPDIAVEWEITGQPEPENNYRTTPPQLDSDGTYFVYSKLSVDRSHWQRGNTYTCSVSHEALHHHHTQKSLTQSPGK | 1.69 | 18.1 |
| feline IgG1a S428Y (antibody, part only; not given: Variable domains, not shown: another chain or arm of the molecule) constant: ASTTAPSVFPLAPSCGTTSGATVALACLVLGYFPEPVTVSWNSGALTSGVHTFPAVLQASGLYSLSSMVTVPSSRWLSDTFTCNVAHPPSNTKVDKTVRKTDHPPGPKPCDCPKCPPPEMLGGPSIFIFPPKPKDTLSISRTPEVTCLVVDLGPDDSDVQITWFVDNTQVYTAKTSPREEQFNSTYRVVSVLPILHQDWLKGKEFKCKVNSKSLPSPIERTISKAKGQPHEPQVYVLPPAQEELSRNKVSVTCLIKSFHPPDIAVEWEITGQPEPENNYRTTPPQLDSDGTYFVYSKLSVDRSHWQRGNTYTCSVYHEALHSHHTQKSLTQSPGK | 16.4 | 18700 |
| feline IgG1a D312P (antibody, part only; not given: Variable domains, not shown: another chain or arm of the molecule) constant: ASTTAPSVFPLAPSCGTTSGATVALACLVLGYFPEPVTVSWNSGALTSGVHTFPAVLQASGLYSLSSMVTVPSSRWLSDTFTCNVAHPPSNTKVDKTVRKTDHPPGPKPCDCPKCPPPEMLGGPSIFIFPPKPKDTLSISRTPEVTCLVVDLGPDDSDVQITWFVDNTQVYTAKTSPREEQFNSTYRVVSVLPILHQPWLKGKEFKCKVNSKSLPSPIERTISKAKGQPHEPQVYVLPPAQEELSRNKVSVTCLIKSFHPPDIAVEWEITGQPEPENNYRTTPPQLDSDGTYFVYSKLSVDRSHWQRGNTYTCSVSHEALHSHHTQKSLTQSPGK | 3.96 | 2960 |

Continued, values first:

| Kd [1] [nM] | Kd [2] [nM] | Binder |
| --- | --- | --- |
| 9.58 | 21.6 | feline IgG1a S434G (antibody, part only; not given: Variable domains, not shown: another chain or arm of the molecule) constant: ASTTAPSVFPLAPSCGTTSGATVALACLVLGYFPEPVTVSWNSGALTSGVHTFPAVLQASGLYSLSSMVTVPSSRWLSDTFTCNVAHPPSNTKVDKTVRKTDHPPGPKPCDCPKCPPPEMLGGPSIFIFPPKPKDTLSISRTPEVTCLVVDLGPDDSDVQITWFVDNTQVYTAKTSPREEQFNSTYRVVSVLPILHQDWLKGKEFKCKVNSKSLPSPIERTISKAKGQPHEPQVYVLPPAQEELSRNKVSVTCLIKSFHPPDIAVEWEITGQPEPENNYRTTPPQLDSDGTYFVYSKLSVDRSHWQRGNTYTCSVSHEALHGHHTQKSLTQSPGK |
| 2.75 | 46.9 | feline IgG1a S428L/S434Y (antibody, part only; not given: Variable domains, not shown: another chain or arm of the molecule; small tags and cut ends) constant: ASTTAPSVFPLAPSCGTTSGATVALACLVLGYFPEPVTVSWNSGALTSGVHTFPAVLQASGLYSLSSMVTVPSSRWLSDTFTCNVAHPPSNTKVDKTVRKTDHPPGPKPCDCPKCPPPEMLGGPSIFIFPPKPKDTLSISRTPEVTCLVVDLGPDDSDVQITWFVDNTQVYTAKTSPREEQFNSTYRVVSVLPILHQDWLKGKEFKCKVNSKSLPSPIERTISKAKGQPHEPQVYVLPPAQEELSRNKVSVTCLIKSFHPPDIAVEWEITGQPEPENNYRTTPPQLDSDGTYFVYSKLSVDRSHWQRGNTYTCSVLHEALHYHHTQKSLTQSPGK |
| 2.21 | 41.3 | feline IgG1a S252R/S434H (antibody, part only; not given: Variable domains, not shown: another chain or arm of the molecule) constant: ASTTAPSVFPLAPSCGTTSGATVALACLVLGYFPEPVTVSWNSGALTSGVHTFPAVLQASGLYSLSSMVTVPSSRWLSDTFTCNVAHPPSNTKVDKTVRKTDHPPGPKPCDCPKCPPPEMLGGPSIFIFPPKPKDTLRISRTPEVTCLVVDLGPDDSDVQITWFVDNTQVYTAKTSPREEQFNSTYRVVSVLPILHQDWLKGKEFKCKVNSKSLPSPIERTISKAKGQPHEPQVYVLPPAQEELSRNKVSVTCLIKSFHPPDIAVEWEITGQPEPENNYRTTPPQLDSDGTYFVYSKLSVDRSHWQRGNTYTCSVSHEALHHHHTQKSLTQSPGK |
| 6.43 | 774 | feline IgG1a S252R/S428L/S434F (antibody, part only; not given: Variable domains, not shown: another chain or arm of the molecule) constant: ASTTAPSVFPLAPSCGTTSGATVALACLVLGYFPEPVTVSWNSGALTSGVHTFPAVLQASGLYSLSSMVTVPSSRWLSDTFTCNVAHPPSNTKVDKTVRKTDHPPGPKPCDCPKCPPPEMLGGPSIFIFPPKPKDTLRISRTPEVTCLVVDLGPDDSDVQITWFVDNTQVYTAKTSPREEQFNSTYRVVSVLPILHQDWLKGKEFKCKVNSKSLPSPIERTISKAKGQPHEPQVYVLPPAQEELSRNKVSVTCLIKSFHPPDIAVEWEITGQPEPENNYRTTPPQLDSDGTYFVYSKLSVDRSHWQRGNTYTCSVLHEALHFHHTQKSLTQSPGK |
| 49.9 | 8410 | feline IgG1a S252H (antibody, part only; not given: Variable domains, not shown: another chain or arm of the molecule) constant: ASTTAPSVFPLAPSCGTTSGATVALACLVLGYFPEPVTVSWNSGALTSGVHTFPAVLQASGLYSLSSMVTVPSSRWLSDTFTCNVAHPPSNTKVDKTVRKTDHPPGPKPCDCPKCPPPEMLGGPSIFIFPPKPKDTLHISRTPEVTCLVVDLGPDDSDVQITWFVDNTQVYTAKTSPREEQFNSTYRVVSVLPILHQDWLKGKEFKCKVNSKSLPSPIERTISKAKGQPHEPQVYVLPPAQEELSRNKVSVTCLIKSFHPPDIAVEWEITGQPEPENNYRTTPPQLDSDGTYFVYSKLSVDRSHWQRGNTYTCSVSHEALHSHHTQKSLTQSPGK |
| 4.18 | 207 | feline IgG1a Q311W (antibody, part only; not given: Variable domains, not shown: another chain or arm of the molecule) constant: ASTTAPSVFPLAPSCGTTSGATVALACLVLGYFPEPVTVSWNSGALTSGVHTFPAVLQASGLYSLSSMVTVPSSRWLSDTFTCNVAHPPSNTKVDKTVRKTDHPPGPKPCDCPKCPPPEMLGGPSIFIFPPKPKDTLSISRTPEVTCLVVDLGPDDSDVQITWFVDNTQVYTAKTSPREEQFNSTYRVVSVLPILHWDWLKGKEFKCKVNSKSLPSPIERTISKAKGQPHEPQVYVLPPAQEELSRNKVSVTCLIKSFHPPDIAVEWEITGQPEPENNYRTTPPQLDSDGTYFVYSKLSVDRSHWQRGNTYTCSVSHEALHSHHTQKSLTQSPGK |
